This series addresses T1, ZBTB48 ZnF10-11-C (Homo sapiens, UniProt P10074 548-620).
T1 sequence: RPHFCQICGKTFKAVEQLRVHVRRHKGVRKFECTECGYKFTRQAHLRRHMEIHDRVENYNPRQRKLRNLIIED
As to the kind of experiment: crystal structure.

B1: CIITA e.2 crystal duplex (dsDNA)
DNA 1: CACAAGTGAGGGATCA
DNA 2: GTGATCCCTCACTTGT
Turning to B1, the binding result is given as “binds”.

Source of the values: article doi:10.1101/2023.07.25.550481.
